In article PMC2770460:

Target: recombinant full-length mammalian Tpr (6xHis-Tpr) (not stated (mammalian)) (UniProt P12270)
Test: ELISA; solid phase binding assay: Maxisorp microtiter plates coated with 25 ng of Tpr or C-Tpr; increasing concentrations of the soluble protein; bound protein detected with primary antibodies and horseradish peroxidase-conjugated secondary antibodies (TMB); apparent Kd from B = Bmax x Y/(Kd + Y); CRM1, NES and RanGTP at equimolar concentrations

Sequence of recombinant full-length mammalian Tpr (6xHis-Tpr) (not stated (mammalian)) (P12270 whole entry): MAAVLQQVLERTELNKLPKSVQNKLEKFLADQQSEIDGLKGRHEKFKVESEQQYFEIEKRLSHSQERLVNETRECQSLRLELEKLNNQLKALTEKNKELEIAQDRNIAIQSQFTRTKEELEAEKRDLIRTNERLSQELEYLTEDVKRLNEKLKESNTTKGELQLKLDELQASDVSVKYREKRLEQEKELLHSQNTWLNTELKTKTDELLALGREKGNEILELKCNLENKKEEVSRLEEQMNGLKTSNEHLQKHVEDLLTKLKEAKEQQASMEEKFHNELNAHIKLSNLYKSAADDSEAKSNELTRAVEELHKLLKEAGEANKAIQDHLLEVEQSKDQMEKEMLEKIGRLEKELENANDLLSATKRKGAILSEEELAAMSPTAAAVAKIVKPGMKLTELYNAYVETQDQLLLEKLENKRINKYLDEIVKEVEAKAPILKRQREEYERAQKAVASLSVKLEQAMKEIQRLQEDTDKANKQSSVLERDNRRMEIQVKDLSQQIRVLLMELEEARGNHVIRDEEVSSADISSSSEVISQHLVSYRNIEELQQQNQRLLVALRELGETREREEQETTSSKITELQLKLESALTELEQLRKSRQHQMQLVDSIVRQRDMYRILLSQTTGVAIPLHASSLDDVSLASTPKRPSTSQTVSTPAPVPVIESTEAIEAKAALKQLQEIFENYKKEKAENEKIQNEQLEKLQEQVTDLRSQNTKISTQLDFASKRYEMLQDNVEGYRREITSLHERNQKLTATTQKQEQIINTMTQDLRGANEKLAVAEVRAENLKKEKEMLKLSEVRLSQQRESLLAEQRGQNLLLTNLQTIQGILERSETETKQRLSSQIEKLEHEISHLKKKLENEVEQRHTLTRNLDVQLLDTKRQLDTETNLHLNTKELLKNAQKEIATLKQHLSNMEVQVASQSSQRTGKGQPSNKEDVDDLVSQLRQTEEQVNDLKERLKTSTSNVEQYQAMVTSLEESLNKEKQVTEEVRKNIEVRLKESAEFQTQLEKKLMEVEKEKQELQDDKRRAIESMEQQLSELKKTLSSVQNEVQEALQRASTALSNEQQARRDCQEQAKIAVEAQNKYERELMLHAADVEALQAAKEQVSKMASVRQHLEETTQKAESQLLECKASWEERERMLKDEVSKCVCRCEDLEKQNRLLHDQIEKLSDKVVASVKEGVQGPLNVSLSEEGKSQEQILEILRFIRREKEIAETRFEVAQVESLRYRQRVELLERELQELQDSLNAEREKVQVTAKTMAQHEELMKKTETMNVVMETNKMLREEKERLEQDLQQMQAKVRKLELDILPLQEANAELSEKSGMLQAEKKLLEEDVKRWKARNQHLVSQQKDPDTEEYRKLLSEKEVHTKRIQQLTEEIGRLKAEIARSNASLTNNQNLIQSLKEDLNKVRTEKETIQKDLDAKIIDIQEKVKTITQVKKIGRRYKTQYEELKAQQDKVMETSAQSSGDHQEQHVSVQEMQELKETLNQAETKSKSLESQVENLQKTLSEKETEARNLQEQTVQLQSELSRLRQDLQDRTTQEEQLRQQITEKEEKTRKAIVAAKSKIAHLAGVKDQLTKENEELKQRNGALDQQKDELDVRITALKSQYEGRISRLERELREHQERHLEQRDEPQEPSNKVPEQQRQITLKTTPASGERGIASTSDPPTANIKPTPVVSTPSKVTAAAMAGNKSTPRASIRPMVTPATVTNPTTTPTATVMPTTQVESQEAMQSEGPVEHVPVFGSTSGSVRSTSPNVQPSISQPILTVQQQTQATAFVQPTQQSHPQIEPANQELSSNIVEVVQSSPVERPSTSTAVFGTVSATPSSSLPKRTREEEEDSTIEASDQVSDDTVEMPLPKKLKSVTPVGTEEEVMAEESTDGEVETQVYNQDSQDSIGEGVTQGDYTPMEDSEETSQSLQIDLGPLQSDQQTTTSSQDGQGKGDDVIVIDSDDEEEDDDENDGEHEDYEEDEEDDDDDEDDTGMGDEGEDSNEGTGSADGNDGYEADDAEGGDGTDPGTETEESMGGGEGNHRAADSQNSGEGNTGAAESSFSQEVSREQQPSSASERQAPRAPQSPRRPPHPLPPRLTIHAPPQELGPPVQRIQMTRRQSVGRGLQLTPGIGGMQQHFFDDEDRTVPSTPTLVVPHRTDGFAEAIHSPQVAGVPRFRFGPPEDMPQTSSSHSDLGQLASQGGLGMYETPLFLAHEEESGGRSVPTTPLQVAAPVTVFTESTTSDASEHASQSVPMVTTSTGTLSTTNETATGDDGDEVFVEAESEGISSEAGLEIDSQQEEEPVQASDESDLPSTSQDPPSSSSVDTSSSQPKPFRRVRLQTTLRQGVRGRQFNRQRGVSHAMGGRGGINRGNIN

Kd: 21.5 nM
Substance: His-importin α (from UniProt P52292 1-529) (natural protein)
